# T1: polypeptide comprising the amino acid sequence of SEQ ID NO: 269 (human)
# T1 peptide: PPVNEPETLKQQNQYQAS
# T2: CAPRIN-1 protein expressed on the cell membrane surface of human cancer cell lines (human, UniProt Q14444 2-709)
# T2 sequence (looked up): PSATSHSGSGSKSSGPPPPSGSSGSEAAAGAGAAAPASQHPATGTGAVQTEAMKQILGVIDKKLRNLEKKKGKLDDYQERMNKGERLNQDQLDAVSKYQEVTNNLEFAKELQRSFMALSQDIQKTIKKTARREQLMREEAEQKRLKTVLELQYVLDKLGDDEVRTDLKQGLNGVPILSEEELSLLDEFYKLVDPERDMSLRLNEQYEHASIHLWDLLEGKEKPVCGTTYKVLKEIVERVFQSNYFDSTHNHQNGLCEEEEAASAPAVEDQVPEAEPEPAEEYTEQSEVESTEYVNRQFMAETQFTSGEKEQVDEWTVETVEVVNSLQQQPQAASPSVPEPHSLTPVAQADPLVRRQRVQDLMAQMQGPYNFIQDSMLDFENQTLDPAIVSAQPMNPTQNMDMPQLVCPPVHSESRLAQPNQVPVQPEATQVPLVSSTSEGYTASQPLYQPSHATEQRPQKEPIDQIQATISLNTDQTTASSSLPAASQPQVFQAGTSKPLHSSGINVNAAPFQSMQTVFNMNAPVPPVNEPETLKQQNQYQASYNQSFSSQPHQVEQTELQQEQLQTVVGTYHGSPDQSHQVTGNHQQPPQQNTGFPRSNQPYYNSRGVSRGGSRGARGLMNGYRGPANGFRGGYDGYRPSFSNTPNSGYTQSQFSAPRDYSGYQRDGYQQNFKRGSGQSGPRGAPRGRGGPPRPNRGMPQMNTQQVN
# T3: polypeptide of SEQ ID NO: 266 (human)
# T3 peptide: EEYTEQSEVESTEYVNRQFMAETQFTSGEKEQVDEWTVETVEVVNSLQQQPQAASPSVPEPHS
# T4: peptide of SEQ ID NO: 267 (human)
# T4 peptide: QQPQAASPSVPE
# T5: peptide of SEQ ID NO: 268 (human)
# T5 peptide: FTSGEKEQVDEW
# Key:
# [1] = molecular target: T1, polypeptide comprising the amino acid …; assay: ELISA on immobilised synthetic CAPRIN-1 peptides
# Experimental: (§1) Then, the solution in each well was discarded, and each well was washed six times with PBST.
# (§2) A TMB substrate solution (manufactured by Thermo Fisher Scientific Inc.) was added thereto at a concentration of 100 μl/well and left standing for 15 to 30 minutes to cause color reaction. After the color development, the reaction was terminated by the addition of 1 N sulfuric acid at a concentration of 100 μl/well. The absorbance was measured at 450 nm and 595 nm using an absorption spectrometer. As a result, a polypeptide of SEQ ID NO: 266 was identified as a partial CAPRIN-1 sequence recognized by all of the anti-CAPRIN-1 antibodies human-chicken chimeric monoclonal antibody #1 and anti-CAPRIN-1 monoclonal antibodies #1 to #5. In the polypeptide of SEQ ID NO: 266, a peptide of SEQ ID NO: 267 was identified as a partial sequence recognized by the human-chicken chimeric monoclonal antibody #1 and the mouse monoclonal antibodies #3 and #4. In the polypeptide of SEQ ID NO: 266, a peptide of SEQ ID NO: 268 was identified as a partial sequence recognized by the mouse monoclonal antibodies #1, #2, and #5. […] Also, a polypeptide comprising the amino acid sequence of SEQ ID NO: 270 was identified as a partial CAPRIN-1 sequence recognized by all of the anti-CAPRIN-1 monoclonal antibodies #6, #7, and #8. […] In addition, a polypeptide comprising the amino acid sequence of SEQ ID NO: 272 was identified as a partial CAPRIN-1 sequence recognized by all of the anti-CAPRIN-1 monoclonal antibodies #9, #10, and #11. […] In addition, a polypeptide comprising the amino acid sequence of SEQ ID NO: 269 was identified as a partial CAPRIN-1 sequence recognized by the human-chicken chimeric monoclonal antibody #3.
# [2] = molecular target: T2, CAPRIN-1 protein expressed on the cell …; assay: cell-based or functional assay
# [3] = molecular target: T3, polypeptide of SEQ ID NO: 266; assay: ELISA on immobilised synthetic CAPRIN-1 peptides
# Experimental: as §1, §2
# [4] = molecular target: T4, peptide of SEQ ID NO: 267; assay: ELISA on immobilised synthetic CAPRIN-1 peptides
# Experimental: as §1, §2
# [5] = molecular target: T2, CAPRIN-1 protein expressed on the cell …; assay: flow cytometry on Capan-2, MIAPaCa-2, PANC-1 and BxPC-3 cells, vs isotype control
# Experimental: Next, four pancreatic cancer cell lines (Capan-2, MIAPaCa-2, PANC-1, and BxPC-3) confirmed to have CAPRIN-1 gene expression were examined for their expression of CAPRIN-1 protein on the cell surface. 10⁶ cells of each cell line were centrifuged in each 1.5-ml microcentrifuge tube. The cancer cell surface-reactive anti-CAPRIN-1 mouse monoclonal antibodies #1 to #22 prepared in Example 4 and the culture supernatant (100 μl) containing the anti-CAPRIN-1 mouse-chicken chimeric antibody #1, #2, or #3 prepared in the preceding paragraph (2) were separately added to the tubes and left standing for 1 hour on ice. After washing with PBS, the cells were suspended in FITC-labeled goat anti-mouse IgG antibodies (manufactured by Invitrogen Corp.) diluted 500-fold with PBS containing 0.1% FBS and left standing for 1 hour on ice. After washing with PBS, the fluorescence intensity was measured using FACSCalibur (Becton, Dickinson and Company). On the other hand, the same operation as above was performed using isotype control antibodies, instead of the anti-CAPRIN-1 mouse monoclonal antibodies #1 to #22 and the culture supernatant containing the mouse-chicken chimeric antibody #1, #2, or #3, to prepare a control. As a result, all the cells supplemented with any of the monoclonal antibodies #1 to #22 and the mouse-chicken chimeric antibodies #1, #2, and #3 had fluorescence intensity at least 20% stronger than that of the control. […] The above rate of enhancement in fluorescence intensity was indicated by the rate of increase in mean fluorescence intensity (MFI) in each cell line and calculated according to the following expression: […]
# [6] = molecular target: T5, peptide of SEQ ID NO: 268; assay: ELISA on immobilised synthetic CAPRIN-1 peptides
# Experimental: as §1, §2
binding result [1],binding result [3],binding result [4],rate of increase in mean fluorescence intensity [5],binding result [6],Binder,cytotoxic activity (ADCC) against MIAPaCa-2 and Capan-2 [2]
binds,–,–,–,–,"human-chicken chimeric antibody #3 (antibody, human IgG1, kappa, V domains shown, also called human-chicken chimeric monoclonal antibody #3) VH: AVTLDESGGGLQTPGGALSLVCKASGFTFSGYDMLWVRQAPGKGLEWVAGIGSTGGGTDYGAAVKGRATISRDNGQSTVRLQLNNLRAEDTATYYCAKVAGGCNSGYCRDSPGSIDAWGHGTEVIVSA VL: AVTQQPASVSANPGETVKITCSGGGSRNYYGWYQQKSPGSVPVTVIYYDDQRPSNIPSRFSGALSGSTSTLTITGVQADDEAVYFCGSADSNTYEGSFGAGTTLTVLT",≥ 10%
–,binds,binds,–,–,"human-chicken chimeric antibody #1 (antibody, human IgG1, kappa, V domains shown, also called human-chicken chimeric monoclonal antibody #1) VH: AVTLDESGGGLQMSRGGLSLVCKASGFDFSSYQMNWIRQAPGKGLEFVAAINKFGNSTGHGAAVKGRVTISRDNGQSTVRLQLNNLRAEDTAIYFCTKHAYGYCGSGTWCAAGEIDAWGHGTEVIVSS VL: QAASTQPSSVSANPGETVEITCSGGGSYSYGWFQQKSPGSAPVTVIYYNNKRPSDIPSRFSGSKSGSTGTLTITGVQADDEAVYYCGSGDSTDTAVFGAGTTLTVLG",–
–,binds,binds,≥ 20%,–,"mouse monoclonal antibody #4 (antibody, V domains shown, Mouse hybridoma antibody; also called anti-CAPRIN-1 mouse monoclonal antibody #4) VH: GAELVRSGASVKMSCKASGYSFTDYNMYWVKQTPGQGLEWIGYIYPGNGGTNYNQKFKGKATLTADTSSSTAYMQISSLTSEDSAVYFCARDYDDGGYAMDYWGQGTTVTVSS VL: DIQMTQSPASLSASVGETVTITCRASGNIHNYLTWYQQKQGKSPQLLVYNAKTLADGVPSRFSGSGSGTQYSLKINRLQPEDFGSYYCQHFWNIPWTFGGGTKLNSR",≥ 10%
–,binds,–,≥ 20%,binds,"mouse monoclonal antibody #5 (antibody, V domains shown, Mouse hybridoma antibody; also called anti-CAPRIN-1 mouse monoclonal antibody #5) VH: DAELVKPGASVKISCKASGYTFTDHSIHWVQQKPEQGLEWIGYISPGNGNIKYNEKFKGKATLTADKSSSTAYMQLNSLTSEDSAVYFCKRSLGRGGPYYFDYWGQGTTVTVSS VL: DIVLTQAAPSLPVTPGESVSISCRSSKSLLHSNGNTYLYWFLQRPGQSPQLLIYRMSNLASGVPDRFSGSGSGTAFTLRISRVEAEDVGVYYCMQHREYPVTFGSGPN",≥ 10%
